The values below come from patent US20240336656A1.

Starred links: 1 amine or outer side, 2 acyl side, 3 side chain; linkers in the order of their positions; H or OH if unused. Positions of bridges follow the written chain, without caps; N, C: chain ends. Non-standard residues stand in square brackets, D forms with d. Groups on a side chain read outwards from the residue. Chains are numbered I, II in the order given. No end group written: not given here. *: point of attachment. TATA = O=C(CC[*:1])N1CN(C(=O)CC[*:2])CN(C(=O)CC[*:3])C1; PEG12 = NCCOCCOCCOCCOCCOCCOCCOCCOCCOCCOCCOCCOCCC(=O)O; Biotin = O=C1N[C@H]2[C@H](CS[C@H]2CCCCC(=O)*)N1; 1Nal = N[C@@H](Cc1cccc2ccccc12)C(=O)O; Hyp = O=C(O)[C@@H]1C[C@@H](O)CN1; hArg = N=C(N)NCCCC[C@H](N)C(=O)O; tBuAla = CC(C)(C)C[C@H](N)C(=O)O; Nle = CCCC[C@H](N)C(=O)O; Pent4ynoyl = C#CCCC(=O)*

Assay [1] addresses human CD137 extracellular domain (human), Q07011. Kind of assay: SPR direct binding, BCY13582 captured with reversible biotin capture kit, soluble CD137 ECD; n = 3.
In assay [2] the target is T1, cyno CD137 extracellular domain (cyno), A9YYE7.
T1 chain: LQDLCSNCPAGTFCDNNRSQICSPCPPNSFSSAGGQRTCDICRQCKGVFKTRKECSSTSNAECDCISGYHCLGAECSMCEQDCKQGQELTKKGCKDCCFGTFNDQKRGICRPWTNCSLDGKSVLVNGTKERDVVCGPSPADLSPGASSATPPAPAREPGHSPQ
Nature of the assay: SPR direct binding, BCY13582 captured with reversible biotin capture kit, soluble CD137 ECD; n = 1.

The target in assay [3] is CD137 (TNFRSF9) on cells (human), Q07011. Nature of the assay: cell-based or functional assay.
Chain of CD137 (TNFRSF9) on cells (human), Q07011 (Q07011 24-255): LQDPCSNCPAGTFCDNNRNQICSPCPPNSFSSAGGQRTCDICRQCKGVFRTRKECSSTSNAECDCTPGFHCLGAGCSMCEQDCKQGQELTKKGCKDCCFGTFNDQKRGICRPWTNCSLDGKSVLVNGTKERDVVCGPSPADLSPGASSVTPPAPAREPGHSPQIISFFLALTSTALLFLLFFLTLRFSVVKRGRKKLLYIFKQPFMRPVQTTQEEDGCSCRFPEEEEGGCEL

Chain of human CD137 extracellular domain (human), Q07011 (Q07011 24-186): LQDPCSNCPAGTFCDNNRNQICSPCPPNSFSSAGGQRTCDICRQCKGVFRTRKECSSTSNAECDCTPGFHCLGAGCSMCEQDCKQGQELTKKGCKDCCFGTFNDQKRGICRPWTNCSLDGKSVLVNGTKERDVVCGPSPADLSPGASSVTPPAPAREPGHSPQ

B1: BCY13582 (peptide)
peptide 1: {N‑(acid-PEG3)‑N‑bis(PEG3-azide) linker}-CP[1Nal][dD]CM[hArg]DWSTP[Hyp]WC
peptide 2: Ac-C[tBuAla]PE[dK](Pent4ynoyl)PYCFADPY[Nle]CA
peptide 3: Ac-C[tBuAla]PE[dK](Pent4ynoyl)PYCFADPY[Nle]CK([PEG12-Biotin])
modifications: linker I:1-I:5-I:15, II:1-II:8-II:15, III:1-III:8-III:15 via TATA; not fully specified (bridges); also: chains 2 and 3 triazole-clicked via D-Lys(PYA) to the N-(acid-PEG3)-N-bis(PEG3-azide) linker, chain 1 joined to the linker at its N-terminus
Consider B1, for which the equilibrium dissociation constant (Kd) in assay [1] amounted to 8.4 nM. This molecule showed an equilibrium dissociation constant (Kd) in assay [2] of 4.23 nM. For the same molecule, in assay [3], the EC50 (nM) of fold induction over background, CD137 reporter assay, coculture with HT1376 (human) worked out at 0.58 nM and the EC50 (nM) of fold induction over background, CD137 reporter assay, coculture with MDA-MB-468 (human) amounted to 0.34 nM.

B2: BCY13583 (peptide)
peptide 1: {N‑(acid-PEG3)‑N‑bis(PEG3-azide) linker}-CP[1Nal][dD]CM[hArg]DWSTP[Hyp]WC
peptide 2: Ac-C[tBuAla]PE[dK](Pent4ynoyl)PYCFADPY[Nle]CA
peptide 3: Ac-C[tBuAla]PE[dK](Pent4ynoyl)PYCFADPY[Nle]CK(Alexa Fluor 488)
modifications: linker I:1-I:5-I:15, II:1-II:8-II:15, III:1-III:8-III:15 via TATA; not fully specified (bridges); also: chains 2 and 3 triazole-clicked via D-Lys(PYA) to the N-(acid-PEG3)-N-bis(PEG3-azide) linker, chain 1 joined to the linker at its N-terminus
With B2, in assay [3], the EC50 (nM) of fold induction over background, CD137 reporter assay, coculture with HT1376 (human) is 1.7 nM and the EC50 (nM) of fold induction over background, CD137 reporter assay, coculture with MDA-MB-468 (human) was found to be 0.84 nM.

Broadly, the Kd is a measure of binding affinity in units of concentration. The low end stands for a tighter complex, the high end for a looser complex.
